Where no end group is shown, it is not given here. The star is where a group is joined. C16 diacid = O=C(O)CCCCCCCCCCCCCCC(=O)*
T1: human GIP receptor (human, UniProt P48546 22-466)
T1 sequence (looked up): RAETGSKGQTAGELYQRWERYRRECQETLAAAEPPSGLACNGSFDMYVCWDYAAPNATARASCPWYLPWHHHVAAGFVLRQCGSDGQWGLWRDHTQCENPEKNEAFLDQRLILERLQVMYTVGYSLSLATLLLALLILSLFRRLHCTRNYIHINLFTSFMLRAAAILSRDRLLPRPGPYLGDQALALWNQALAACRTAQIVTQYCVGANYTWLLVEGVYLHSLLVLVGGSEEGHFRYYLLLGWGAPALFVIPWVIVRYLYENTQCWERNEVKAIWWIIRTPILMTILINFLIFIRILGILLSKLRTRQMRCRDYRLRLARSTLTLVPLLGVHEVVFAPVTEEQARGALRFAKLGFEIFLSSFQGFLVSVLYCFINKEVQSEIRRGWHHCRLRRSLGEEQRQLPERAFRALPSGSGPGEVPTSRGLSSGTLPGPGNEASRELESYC

B1: AT362 (peptide)
peptide: EGTFISDYSIAMDKIK(C16 diacid)QQDFVNWLLAQKGKKNDWKHN-OH
B2: AT453 (peptide)
peptide: EGTFISDYSIAMDKIK(C16 diacid)QQDFVNWLLAQKGKKNDWKHNI-OH
modifications: N-terminus assumed
SMILES: CC[C@H](C)[C@H](NC(=O)[C@H](CC(N)=O)NC(=O)[C@H](Cc1c[nH]cn1)NC(=O)[C@H](CCCCN)NC(=O)[C@H](Cc1c[nH]c2ccccc12)NC(=O)[C@H](CC(=O)O)NC(=O)[C@H](CC(N)=O)NC(=O)[C@H](CCCCN)NC(=O)[C@H](CCCCN)NC(=O)CNC(=O)[C@H](CCCCN)NC(=O)[C@H](CCC(N)=O)NC(=O)[C@H](C)NC(=O)[C@H](CC(C)C)NC(=O)[C@H](CC(C)C)NC(=O)[C@H](Cc1c[nH]c2ccccc12)NC(=O)[C@H](CC(N)=O)NC(=O)[C@@H](NC(=O)[C@H](Cc1ccccc1)NC(=O)[C@H](CC(=O)O)NC(=O)[C@H](CCC(N)=O)NC(=O)[C@H](CCC(N)=O)NC(=O)[C@H](CCCCNC(=O)CCCCCCCCCCCCCCC(=O)O)NC(=O)[C@@H](NC(=O)[C@H](CCCCN)NC(=O)[C@H](CC(=O)O)NC(=O)[C@H](CCSC)NC(=O)[C@H](C)NC(=O)[C@@H](NC(=O)[C@H](CO)NC(=O)[C@H](Cc1ccc(O)cc1)NC(=O)[C@H](CC(=O)O)NC(=O)[C@H](CO)NC(=O)[C@@H](NC(=O)[C@H](Cc1ccccc1)NC(=O)[C@@H](NC(=O)CNC(=O)[C@@H](N)CCC(=O)O)[C@@H](C)O)[C@@H](C)CC)[C@@H](C)CC)[C@@H](C)CC)C(C)C)C(=O)O
B3: AT454 (peptide)
peptide: EGTFISDYSIAMDKIK(C16 diacid)QQDFVNWLLAQKGKKNDWKHNIT-OH
modifications: N-terminus assumed
SMILES: CC[C@H](C)[C@H](NC(=O)[C@H](CO)NC(=O)[C@H](Cc1ccc(O)cc1)NC(=O)[C@H](CC(=O)O)NC(=O)[C@H](CO)NC(=O)[C@@H](NC(=O)[C@H](Cc1ccccc1)NC(=O)[C@@H](NC(=O)CNC(=O)[C@@H](N)CCC(=O)O)[C@@H](C)O)[C@@H](C)CC)C(=O)N[C@@H](C)C(=O)N[C@@H](CCSC)C(=O)N[C@@H](CC(=O)O)C(=O)N[C@@H](CCCCN)C(=O)N[C@H](C(=O)N[C@@H](CCCCNC(=O)CCCCCCCCCCCCCCC(=O)O)C(=O)N[C@@H](CCC(N)=O)C(=O)N[C@@H](CCC(N)=O)C(=O)N[C@@H](CC(=O)O)C(=O)N[C@@H](Cc1ccccc1)C(=O)N[C@H](C(=O)N[C@@H](CC(N)=O)C(=O)N[C@@H](Cc1c[nH]c2ccccc12)C(=O)N[C@@H](CC(C)C)C(=O)N[C@@H](CC(C)C)C(=O)N[C@@H](C)C(=O)N[C@@H](CCC(N)=O)C(=O)N[C@@H](CCCCN)C(=O)NCC(=O)N[C@@H](CCCCN)C(=O)N[C@@H](CCCCN)C(=O)N[C@@H](CC(N)=O)C(=O)N[C@@H](CC(=O)O)C(=O)N[C@@H](Cc1c[nH]c2ccccc12)C(=O)N[C@@H](CCCCN)C(=O)N[C@@H](Cc1c[nH]cn1)C(=O)N[C@@H](CC(N)=O)C(=O)N[C@H](C(=O)N[C@H](C(=O)O)[C@@H](C)O)[C@@H](C)CC)C(C)C)[C@@H](C)CC
B4: AT452 (peptide)
peptide: EGTFISDYSIAMDKIK(C16 diacid)QQDFVNWLLAQKGKKNDWKH-OH
modifications: N-terminus assumed
SMILES: CC[C@H](C)[C@H](NC(=O)[C@H](CO)NC(=O)[C@H](Cc1ccc(O)cc1)NC(=O)[C@H](CC(=O)O)NC(=O)[C@H](CO)NC(=O)[C@@H](NC(=O)[C@H](Cc1ccccc1)NC(=O)[C@@H](NC(=O)CNC(=O)[C@@H](N)CCC(=O)O)[C@@H](C)O)[C@@H](C)CC)C(=O)N[C@@H](C)C(=O)N[C@@H](CCSC)C(=O)N[C@@H](CC(=O)O)C(=O)N[C@@H](CCCCN)C(=O)N[C@H](C(=O)N[C@@H](CCCCNC(=O)CCCCCCCCCCCCCCC(=O)O)C(=O)N[C@@H](CCC(N)=O)C(=O)N[C@@H](CCC(N)=O)C(=O)N[C@@H](CC(=O)O)C(=O)N[C@@H](Cc1ccccc1)C(=O)N[C@H](C(=O)N[C@@H](CC(N)=O)C(=O)N[C@@H](Cc1c[nH]c2ccccc12)C(=O)N[C@@H](CC(C)C)C(=O)N[C@@H](CC(C)C)C(=O)N[C@@H](C)C(=O)N[C@@H](CCC(N)=O)C(=O)N[C@@H](CCCCN)C(=O)NCC(=O)N[C@@H](CCCCN)C(=O)N[C@@H](CCCCN)C(=O)N[C@@H](CC(N)=O)C(=O)N[C@@H](CC(=O)O)C(=O)N[C@@H](Cc1c[nH]c2ccccc12)C(=O)N[C@@H](CCCCN)C(=O)N[C@@H](Cc1c[nH]cn1)C(=O)O)C(C)C)[C@@H](C)CC
B5: AT451 (peptide)
peptide: EGTFISDYSIAMDKIK(C16 diacid)QQDFVNWLLAQKGKKNDWK-OH
modifications: N-terminus assumed
SMILES: CC[C@H](C)[C@H](NC(=O)[C@H](CO)NC(=O)[C@H](Cc1ccc(O)cc1)NC(=O)[C@H](CC(=O)O)NC(=O)[C@H](CO)NC(=O)[C@@H](NC(=O)[C@H](Cc1ccccc1)NC(=O)[C@@H](NC(=O)CNC(=O)[C@@H](N)CCC(=O)O)[C@@H](C)O)[C@@H](C)CC)C(=O)N[C@@H](C)C(=O)N[C@@H](CCSC)C(=O)N[C@@H](CC(=O)O)C(=O)N[C@@H](CCCCN)C(=O)N[C@H](C(=O)N[C@@H](CCCCNC(=O)CCCCCCCCCCCCCCC(=O)O)C(=O)N[C@@H](CCC(N)=O)C(=O)N[C@@H](CCC(N)=O)C(=O)N[C@@H](CC(=O)O)C(=O)N[C@@H](Cc1ccccc1)C(=O)N[C@H](C(=O)N[C@@H](CC(N)=O)C(=O)N[C@@H](Cc1c[nH]c2ccccc12)C(=O)N[C@@H](CC(C)C)C(=O)N[C@@H](CC(C)C)C(=O)N[C@@H](C)C(=O)N[C@@H](CCC(N)=O)C(=O)N[C@@H](CCCCN)C(=O)NCC(=O)N[C@@H](CCCCN)C(=O)N[C@@H](CCCCN)C(=O)N[C@@H](CC(N)=O)C(=O)N[C@@H](CC(=O)O)C(=O)N[C@@H](Cc1c[nH]c2ccccc12)C(=O)N[C@@H](CCCCN)C(=O)O)C(C)C)[C@@H](C)CC
B6: AT361 (peptide)
peptide: EGTFISDYSIAMDKIK(C16 diacid)QQDFVNWLLAQKGKKNDW-OH
modifications: N-terminus assumed
SMILES: CC[C@H](C)[C@H](NC(=O)[C@H](CO)NC(=O)[C@H](Cc1ccc(O)cc1)NC(=O)[C@H](CC(=O)O)NC(=O)[C@H](CO)NC(=O)[C@@H](NC(=O)[C@H](Cc1ccccc1)NC(=O)[C@@H](NC(=O)CNC(=O)[C@@H](N)CCC(=O)O)[C@@H](C)O)[C@@H](C)CC)C(=O)N[C@@H](C)C(=O)N[C@@H](CCSC)C(=O)N[C@@H](CC(=O)O)C(=O)N[C@@H](CCCCN)C(=O)N[C@H](C(=O)N[C@@H](CCCCNC(=O)CCCCCCCCCCCCCCC(=O)O)C(=O)N[C@@H](CCC(N)=O)C(=O)N[C@@H](CCC(N)=O)C(=O)N[C@@H](CC(=O)O)C(=O)N[C@@H](Cc1ccccc1)C(=O)N[C@H](C(=O)N[C@@H](CC(N)=O)C(=O)N[C@@H](Cc1c[nH]c2ccccc12)C(=O)N[C@@H](CC(C)C)C(=O)N[C@@H](CC(C)C)C(=O)N[C@@H](C)C(=O)N[C@@H](CCC(N)=O)C(=O)N[C@@H](CCCCN)C(=O)NCC(=O)N[C@@H](CCCCN)C(=O)N[C@@H](CCCCN)C(=O)N[C@@H](CC(N)=O)C(=O)N[C@@H](CC(=O)O)C(=O)N[C@@H](Cc1c[nH]c2ccccc12)C(=O)O)C(C)C)[C@@H](C)CC

Target: T1, human GIP receptor
Assay: cell-based or functional assay

Row | Binder | cAMP agonism % Emax [%] | cAMP antagonism [nM] | cAMP antagonism % inhib [%] | cAMP antagonism pIC50
1 | B1 | 0 | 14.7 | 94 | 7.8
2 | B2 | 0 | 6.31 | 95 | 8.2
3 | B3 | 0 | 6.81 | 84 | 8.2
4 | B4 | 0 | 7.59 | 97 | 8.1
5 | B5 | 0 | 2.33 | 99 | 8.6
6 | B6 | 0 | 3.76 | 99 | 8.4

Target: T1, human GIP receptor
Assay: cell-based or functional assay
Remark: another data set of the same source

Row | Binder | cAMP agonism Emax | cAMP antagonism [nM] | cAMP antagonism % inhib [%] | cAMP antagonism log [log M]
7 | B1 | 7 | 5 | 86 | -8.3
8 | B2 | 6.1 | 57 | 65 | -7.2
9 | B3 | 8.9 | 54 | 82 | -7.3
10 | B4 | 7.2 | 5 | 75 | -8.3
11 | B5 | 9.2 | 8 | 75 | -8.1
12 | B6 | 5 | 2 | 100 | -8.8
